The supplement of paper PMC5998384

Experiments:
HeLa Kyoto [1] = experiment: solubility in G1/S (NP-40 vs SDS abundance) (log2 ratio); higher = more soluble; conditions: cell cycle stage: G1/S
HeLa Kyoto [2] = experiment: solubility change mitosis vs G1/S (difference of NP-40 vs SDS log2 ratios) (log2 ratio difference); higher = more soluble in mitosis
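Wherever solubility change mitosis vs G1/S (difference of NP-40 vs SDS log2 ratios) is given: synchronized HeLa Kyoto cells (double thymidine block for G1/S, nocodazole release for mitosis), protein amounts in NP-40 versus SDS lysates quantified by mass spectrometry, three biological replicates.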
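Wherever solubility in G1/S (NP-40 vs SDS abundance) is given: HeLa Kyoto cells arrested at G1/S by double thymidine block, proteins quantified by TMT10plex mass spectrometry in mild NP-40 versus SDS extracts, three biological replicates.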

Substance	solubility in G1/S (log2) (HeLa Kyoto [1])	solubility change mitosis (log2) (HeLa Kyoto [2])
MAAAKPTLTDSLSFCLAQLAAAAGEALGGEKDPATNETPLSRALLALRTRHIKAAGGIERFRARGGLRPLLALLRRAAAAGSAPSQAGPGSAPSSAASGASSPAPASGPAPSAVSSSSPTPPVRLRKTLDLALSILADCCTEGACRTEVRRLGGILPLVTILQCMKTDSIQNRTARALGNLAMEPESCGDIHCAGAVPLLVESLTACQDSQCLQSVVRALRNLADSPQHRLALAQQGAVRPLAELLATAPDAALTLALVRALLELSRGCSRACAEQLSLGGGLGPLVSLASHPKRAVREGTILILANLCAQGLIRPALGNAGGVEVLVDELRQRRDPNGASPTSQQPLVRAVCLLCREAINRARLRDAGGLDLLMGLLRDPRASAWHPRIVAALVGFLYDTGALGRLQALGLVPLLAGQLCGEAGEEEEEGREAASWDFPEERTPERAQGGSFRSLRSWLISEGYATGPDDISPDWSPEQCPPEPMEPASPAPTPTSLRAPRTQRTPGRSPAAAIEEPWGREGPALLLLSRFSQAPDPSGALVTGPALYGLLTYVTGAPGPPSPRALRILSRLTCNPACLEAFVRSYGAALLRAWLVLGVAPDDWPAPRARPTLHSRHRELGERLLQNLTVQAESPFGVGALTHLLLSGSPEDRVACALTLPFICRKPSLWRRLLLEQGGLRLLLAALTRPAPHPLFLFFAADSLSCLQDLVSPTVSPAVPQAVPMDLDSPSPCLYEPLLGPAPVPAPDLHFLLDSGLQLPAQRAASATASPFFRALLSGSFAEAQMDLVPLRGLSPGAAWPVLHHLHGCRGCGAALGPVPPPGQPLLGSEAEEALEAAGRFLLPGLEEELEEAVGRIHLGPQGGPESVGEVFRLGRPRLAAHCARWTLGSEQCPRKRGLALVGLVEAAGEEAGPLTEALLAVVMGIELGARVPA [ARMC5]	0.0745	0.0453
MAP3K1	-0.0921	-0.131
MPGLVDSNPAPPESQEKKPLKPCCACPETKKARDACIIEKGEEHCGHLIEAHKECMRALGFKI [COX17]	-0.216	0.425
MFLQYYLNEQGDRVYTLKKFDPMGQQTCSAHPARFSPDDKYSRHRITIKKRFKVLMTQQPRPVL [NOP10]	-1.06	0.778
MYLK	-0.635	0.101
MAEPVQEELSVLAAIFCRPHEWEVLSRSETDGTVFRIHTKAEGFMDVDIPLELVFHLPVNYPSCLPGISINSEQLTRAQCVTVKENLLEQAESLLSEPMVHELVLWIQQNLRHILSQPETGSGSEKCTFSTSTTMDDGLWITLLHLDHMRAKTKYVKIVEKWASDLRLTGRLMFMGKIILILLQGDRNNLKEYLILQKTSKVDVDSSGKKCKEKMISVLFETKVQTEHKRFLAFEVKEYSALDELQKEFETAGLKKLFSEFVLALVK [RWDD3]	0.101	-0.0953
SYNM	-0.94	0.752
MAGRGSLVSWRAFHGCDSAEELPRVSPRFLRAWHPPPVSARMPTRRWAPGTQCITKCEHTRPKPGELAFRKGDVVTILEACENKSWYRVKHHTSGQEGLLAAGALREREALSADPKLSLMPWFHGKISGQEAVQQLQPPEDGLFLVRESARHPGDYVLCVSFGRDVIHYRVLHRDGHLTIDEAVFFCNLMDMVEHYSKDKGAICTKLVRPKRKHGTKSAEEELARAGWLLNLQHLTLGAQIGEGEFGAVLQGEYLGQKVAVKNIKCDVTAQAFLDETAVMTKMQHENLVRLLGVILHQGLYIVMEHVSKGNLVNFLRTRGRALVNTAQLLQFSLHVAEGMEYLESKKLVHRDLAARNILVSEDLVAKVSDFGLAKAERKGLDSSRLPVKWTAPEALKHGKFTSKSDVWSFGVLLWEVFSYGRAPYPKMSLKEVSEAVEKGYRMEPPEGCPGPVHVLMSSCWEAEPARRPPFRKLAEKLARELRSAGAPASVSGQDADGSTSPRSQEP [MATK]	-0.238	0.257
MADAAATAGAGGSGTRSGSKQSTNPADNYHLARRRTLQVVVSSLLTEAGFESAEKASVETLTEMLQSYISEIGRSAKSYCEHTARTQPTLSDIVVTLVEMGFNVDTLPAYAKRSQRMVITAPPVTNQPVTPKALTAGQNRPHPPHIPSHFPEFPDPHTYIKTPTYREPVSDYQVLREKAASQRRDVERALTRFMAKTGETQSLFKDDVSTFPLIAARPFTIPYLTALLPSELEMQQMEETDSSEQDEQTDTENLALHISMEDSGAEKENTSVLQQNPSLSGSRNGEENIIDNPYLRPVKKPKIRRKKSLS [TAF8]	0.116	0.0206
TET2	0.155	-0.257
MSKRLSPQLQHNITEDAYCETHLEPTRLFCDVDQITLCSKCFQSQEHKHHMVCGIQEAAENYRKLFQEILNTSREKLEAAKSILTDEQERMAMIQEEEQNFKKMIESEYSMRLRLLNEECEQNLQRQQECISDLNLRETLLNQAIKLATELEEMFQEMLQRLGRVGRENMEKLKESEARASEQVRSLLKLIVELEKKCGEGTLALLKNAKYSLERSKSLLLEHLEPAHITDLSLCHIRGLSSMFRVLQRHLTLDPETAHPCLALSEDLRTMRLRHGQQDGAGNPERLDFSAMVLAAESFTSGRHYWEVDVEKATRWQVGIYHGSADAKGSTARASGEKVLLTGSVMGTEWTLWVFPPLKRLFLEKKLDTVGVFLDCEHGQISFYNVTEMSLIYNFSHCAFQGALRPVFSLCIPNGDTSPDSLTILQHGPSCDATVSP [TRIML2]	0.0183	-0.17
MSTQDERQINTEYAVSLLEQLKLFYEQQLFTDIVLIVEGTEFPCHKMVLATCSSYFRAMFMSGLSESKQTHVHLRNVDAATLQIIITYAYTGNLAMNDSTVEQLYETACFLQVEDVLQRCREYLIKKINAENCVRLLSFADLFSCEELKQSAKRMVEHKFTAVYHQDAFMQLSHDLLIDILSSDNLNVEKEETVREAAMLWLEYNTESRSQYLSSVLSQIRIDALSEVTQRAWFQGLPPNDKSVVVQGLYKSMPKFFKPRLGMTKEEMMIFIEASSENPCSLYSSVCYSPQAEKVYKLCSPPADLHKVGTVVTPDNDIYIAGGQVPLKNTKTNHSKTSKLQTAFRTVNCFYWFDAQQNTWFPKTPMLFVRIKPSLVCCEGYIYAIGGDSVGGELNRRTVERYDTEKDEWTMVSPLPCAWQWSAAVVVHDCIYVMTLNLMYCYFPRSDSWVEMAMRQTSRSFASAAAFGDKIFYIGGLHIATNSGIRLPSGTVDGSSVTVEIYDVNKNEWKMAANIPAKRYSDPCVRAVVISNSLCVFMRETHLNERAKYVTYQYDLELDRWSLRQHISERVLWDLGRDFRCTVGKLYPSCLEESPWKPPTYLFSTDGTEEFELDGEMVALPPV [KBTBD2]	-0.319	-0.00685
MNSRQAWRLFLSQGRGDRWVSRPRGHFSPALRREFFTTTTKEGYDRRPVDITPLEQRKLTFDTHALVQDLETHGFDKTQAETIVSALTALSNVSLDTIYKEMVTQAQQEITVQQLMAHLDAIRKDMVILEKSEFANLRAENEKMKIELDQVKQQLMHETSRIRADNKLDINLERSRVTDMFTDQEKQLMETTTEFTKKDTQTKSIISETSNKIDAEIASLKTLMESNKLETIRYLAASVFTCLAIALGFYRFWK [CCDC90B]	0.144	0.249
MAATLILEPAGRCCWDEPVRIAVRGLAPEQPVTLRASLRDEKGALFQAHARYRADTLGELDLERAPALGGSFAGLEPMGLLWALEPEKPLVRLVKRDVRTPLAVELEVLDGHDPDPGRLLCRVRHERYFLPPGVRREPVRAGRVRGTLFLPPEPGPFPGIVDMFGTGGGLLEYRASLLAGKGFAVMALAYYNYEDLPKTMETLHLEYFEEAVNYLLSHPEVKGPGVGLLGISKGGELCLSMASFLKGITAAVVINGSVANVGGTLRYKGETLPPVGVNRNRIKVTKDGYADIVDVLNSPLEGPDQKSFIPVERAESTFLFLVGQDDHNWKSEFYANEACKRLQAHGRRKPQIICYPETGHYIEPPYFPLCRASLHALVGSPIIWGGEPRAHAMAQVDAWKQLQTFFHKHLGGHEGTIPSKV [ACOT1]	0.138	-0.000552
MDSSIHLSSLISRHDDEATRTSTSEGLEEGEVEGETLLIVESEDQASVDLSHDQSGDSLNSDEGDVSWMEEQLSYFCDKCQKWIPASQLREQLSYLKGDNFFRFTCSDCSADGKEQYERLKLTWQQVVMLAMYNLSLEGSGRQGYFRWKEDICAFIEKHWTFLLGNRKKTSTWWSTVAGCLSVGSPMYFRSGAQEFGEPGWWKLVHNKPPTMKPEGEKLSASTLKIKAASKPTLDPIITVEGLRKRASRNPVESAMELKEKRSRTQEAKDIRRAQKEAAGFLDRSTSSTPVKFISRGRRPDVILEKGEVIDFSSLSSSDRTPLTSPSPSPSLDFSAPGTPASHSATPSLLSEADLIPDVMPPQALFHDDDEMEGDGVIDPGMEYVPPPAGSVASGPVVGVRKKVRGPEQIKQEVESEEEKPDRMDIDSEDTDSNTSLQTRAREKRKPQLEKDTKPKEPRYTPVSIYEEKLLLKRLEACPGAVAMTPEARRLKRKLIVRQAKRDRGLPLFDLDQVVNAALLLVDGIYGAKEGGISRLPAGQATYRTTCQDFRILDRYQTSLPSRKGFRHQTTKFLYRLVGSEDMAVDQSIVSPYTSRILKPYIRRDYETKPPKLQLLSQIRSHLHRSDPHWTPEPDAPLDYCYVRPNHIPTINSMCQEFFWPGIDLSECLQYPDFSVVVLYKKVIIAFGFMVPDVKYNEAYISFLFVHPEWRRAGIATFMIYHLIQTCMGKDVTLHVSASNPAMLLYQKFGFKTEEYVLDFYDKYYPLESTECKHAFFLRLRR [CSRP2BP]	0.391	0.153
MEKRLQEAQLYKEEGNQRYREGKYRDAVSRYHRALLQLRGLDPSLPSPLPNLGPQGPALTPEQENILHTTQTDCYNNLAACLLQMEPVNYERVREYSQKVLERQPDNAKALYRAGVAFFHLQDYDQARHYLLAAVNRQPKDANVRRYLQLTQSELSSYHRKEKQLYLGMFG [TTC9C]	0.247	0.459
